Laboratory results: patent publication US9872921B2, “DE-N-acetyl sialic acid antigens, antibodies thereto, and methods of use in cancer therapy” (priority 2004, dated 2018)

Legend:
[1] = test system: Jurkat T-cell leukemia cells; assay: Flow cytometry binding to cells; format: cell-based, human
Experimental: (§1) Cells (approximately 10^5 per well) were plated onto a flat bottom 96-well tissue culture plate (Nunc) and incubated with growth medium overnight before assay. Cells were detached from the plate by either trypsin (SK-MEL-28) or CDR (CHP-134) before being collected into a 96-round bottom plate, spun at 500 g for 5 minutes and fixed with ice-cold 1% (v/v) formaldehyde. After 20 minutes cells were pelleted by centrifugation (above) and incubated a blocking solution of 3% (v/v) goat serum with and without Triton X-100 (0.5% w/v) for 1 hour. After which the primary antibodies were added and incubated for 2 h or overnight at 4° C. The cells were washed twice by pelleting and resuspension in ice-cold PBS. Secondary antibody (Invitrogen, as described above) was incubated with the cells for at least 1 hour at 4° C. in the dark. After another series of spins and washes (3 times) binding was analyzed by a Guava EastCyte flow cytometer. Control samples were treated with an isotype matched irrelevant antibody (Southern Biotech), which were used to create baseline fluorescence, or positive control mAbs that are reactive with antigens specifically expressed by the cells (i.e. anti-GD3 for SK-MEL 28 cells and anti-NCAM in CHP-134 cells). In addition, specificity of binding was shown for the Jurkat cells by preincubating SEAM 3 with 50 μg/ml N-Pr NmB PS prior to adding the mAb to the cells.

[2] = test system: CHP-134 neuroblastoma cells; assay: Flow cytometry binding to cells; format: cell-based, human
Experimental: as §1

SK-MEL 28 melanoma cells = assay: Flow cytometry binding to cells; format: cell-based, human
Experimental: as §1

SK-MEL-28 melanoma cells = assay: Fluorescence / confocal microscopy binding to cells; format: cell-based, human; details: without Triton
Experimental: (§2) After an overnight incubation cells were gently washed with PBS buffer and fixed with ice-cold 1% (v/v) formaldehyde. After 20 minutes cells were washed with PBS before blocking non-specific binding with a solution of 3% goat serum for 1 hour. To observe the presence of SEAM 3-reactive antigen that is present inside the cells, the cells were treated Triton X-100 0.5% w/v in 3% goat serum for 1 hour. The primary antibodies were added and incubated for 2 hours or overnight at 4° C. Cells were gently washed by a series (at least twice) with ice-cold PBS before isotype-specific secondary antibody (produced in goat) conjugated with either Alexa Fluor 488 (immunofluorescence and confocal), Alexa Fluor 546 (confocal) Alexa Fluor 594 (immunofluorescence), Alexa Fluor 633 (confocal) was applied for at least 1 hour at 4° C. in the dark (all secondary antibodies conjugated to fluorophores were obtained from Invitrogen, Carlsbad, Calif.). After another series of gentle washes, a hardening mounting medium containing DAPI was applied.
(§3) Confocal images were obtained using a Zeiss Meta510 CLSM at the Biological Imaging Facility, University of California, Berkeley, Calif. and were analyzed using ImageJ Software (NIH). Control antibodies and secondary antibodies applied alone were routinely used to assess background fluorescence.

[3] = test system: CHP-134 neuroblastoma cells; assay: as above; format: cell-based, human; details: without Triton
Experimental: as §2, §3

CHP-134 neuroblastoma = details: approximately proportional to level of antigen on cell surface
[4] = HPTLC / Western blot reactivity with chemically de-N-acylated GD3; format: binding; details: mAbs 5 μg/ml
Experimental: De-N-acyl GM3 and GD3 (Calbiochem) were prepared by suspending 1 mg of ganglioside in 2 ml of 2.5 M tetrabutylammonium hydroxide and 3 ml of butanol then heating the mixture to >100 degrees C. for 4 hours. After cooling the mixture to ambient temperature, the pH was adjusted to about 7 by adding 2 M HCl and the butanol removed by evaporation under a stream of N2. The remaining aqueous layer was dialyzed (1K cut-off dialysis tubing) against PBS buffer and used without further modification as an antigen for ELISA.
Lipids in the extract and in chemically de-N-acylated GD3 were analyzed by separation on high performance thin layer chromatography (HPTLC) and Western blot. Samples of the ganglioside extract, the ganglioside extract that had been treated with sodium borohydride (1 mg/100 μl at ambient temperature for 2 h) to remove the trichloroacetyl protecting group, and chemically de-N-acylated GD3 were spotted onto an aluminum-backed silica gel 60 HPTLC plate (Merck) and the plate developed in chloroform/methanol/0.02% CaCl2 (50:40:10). Plates used for Western blot were dried and dipped in a solution of 0.4% polyisobutylmethacrylate in hexame/chloroform (21:8) for 1 min. The plates were blocked with 1% bovine serum albumin (BSA) in PBS buffer containing 0.1% sodium azide. MAbs (5 μg/ml) in the same blocking buffer were incubated with the plates at 4° C. overnight. […]

B1: SEAM 3: murine anti-N-Pr NmB polysaccharide monoclonal antibody (IgG2b), ATCC Deposit No. HB-12170 (antibody, V domains shown)
VH: EVKLQESGGGLVQPGDSLSLSCAASGFTFTPYYMGWVRQPPGKALEWLGYIRNKANGYTTEYSASVKGRFTISRDNSQSILYLQMNALRAEDSATYYCARYARGTVDSWGQGTTLTVS
VL: DIVMTQSPLTLSVTIGQPASISCKSSQSLLHSNGKTYLNWLLQRPGQSPKLLIYLVSKLESGVPDRFSGSGSGTDFTLKISRVEAEDLGLYYCLQIIHFPHTFGAGTKLELKRA
modifications: mouse
For B1, which “binding to internal antigen by flow cytometry” value (“binding to internal antigen” for short) ([1]; +Triton X-100) is on record?
Its value is “larger amounts of internal SEAM 3-reactive antigen”.

What about the “binding to cell surface by flow cytometry” value ([1]; −Triton) of the same molecule?
Its value is “least”.

And the “binding to internal antigen” value ([2]; +Triton X-100)?
Its value is “larger amounts of internal SEAM 3-reactive antigen”.

What about the “binding to cell surface by flow cytometry” value ([2]; −Triton) of the same molecule?
Its value is “greatest amount of binding”.

And the “binding to internal antigen” value (SK-MEL 28 melanoma cells; +Triton X-100)?
The value was “larger amounts of internal SEAM 3-reactive antigen”.

And the “binding to cell surface by flow cytometry” value (SK-MEL 28 melanoma cells; −Triton)?
The value was “binds to the surface of all three cell lines”.

And the “binding to cell surface by microscopy” value (SK-MEL-28 melanoma cells)?
The value was “fluorescence is uniform over the cell surface”.

What about the “binding to cell surface by microscopy” value [3] of the same molecule?
The value was “fluorescence is uniform over the cell surface”.

And the cytotoxic effect (CHP-134 neuroblastoma)?
The cytotoxic effect was “cytotoxic effect of SEAM 3 was observed”.

And the “reactivity with de-N-acyl GD3 / de-N-acyl gangliosides produced by alkali treatment” value [4]?
The value was “does not react”.
